According to article PMC10670289, “Characterization and Molecular Dynamics Simulation of a Lipase Capable of Improving the Functional Characteristics of an Egg-Yolk-Contaminated Liquid Egg White” (Foods, 2023):

Tests used:
Experiment in all cases: purified protein
Type in all cases: biochemical, Bacillus subtilis
Settings in all cases: 30 °C, pH 9.0
[1] = substrate: CCCCCC(=O)Oc1ccc([N+](=O)[O-])cc1
[2] = substrate: CCCCCCCC(=O)Oc1ccc([N+](=O)[O-])cc1
[3] = substrate: CCCCCCCCCC(=O)Oc1ccc([N+](=O)[O-])cc1
[4] = substrate: CCCCCCCCCCCC(=O)Oc1ccc([N+](=O)[O-])cc1
[5] = substrate: CCCCCCCCCCCCCC(=O)Oc1ccc([N+](=O)[O-])cc1
[6] = substrate: CCCCCCCCCCCCCCCC(=O)Oc1ccc([N+](=O)[O-])cc1
[7] = substrate: CCCCCCCCCCCCCCCCCC(=O)Oc1ccc([N+](=O)[O-])cc1

B1: Lip-IM (Bacillus subtilis subsp. subtilis str. 168) (protein)
chain: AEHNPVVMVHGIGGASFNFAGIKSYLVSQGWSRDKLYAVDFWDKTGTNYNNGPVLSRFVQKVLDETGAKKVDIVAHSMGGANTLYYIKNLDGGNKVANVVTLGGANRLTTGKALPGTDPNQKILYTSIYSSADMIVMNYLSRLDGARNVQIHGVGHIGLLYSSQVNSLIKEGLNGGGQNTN
notes: 22 kDa by SDS-PAGE
Km [1]: 3.92 ± 0.06 mM
Vmax [1]: 233 µM/min
Km [2]: 4.21 ± 0.09 mM
Vmax [2]: 236 µM/min
Km [3]: 5.23 ± 0.04 mM
Vmax [3]: 184 µM/min
Km [4]: 5.96 ± 0.08 mM
Vmax [4]: 204 µM/min
Km [5]: 5.12 ± 0.09 mM
Vmax [5]: 214 µM/min
Km [6]: 9.26 ± 0.09 mM
Vmax [6]: 150 µM/min
Km [7]: 6.26 ± 0.07 mM
Vmax [7]: 292 µM/min
